# From the domain aggregation screens of Martell et al. (2025)
# Assay: soluble fraction after stress (log2 fold change); higher = more stays soluble; pooled small domains, quantitative proteomics
# Conditions: stress: 75 degC
# 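Also: 20 min heating vs room temperature control held 20 min.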
row,Sequence,soluble fraction (log2)
1,HMDLVESYDLKIIYTSELINLLIDSSRLEEALNLFKDLKDEIDDVENLGFSAKNNLDYMESKLLHLG,-1.94
2,HMDLYIILGLERSATLSDVRRAYRRLARKYHPGINPGDRNSASVFTRVSEAYQVLSDPEQRRRYDSR,-2.84
3,HMDMDRRALLLALINDRYHASVAEFARAINKAPAQVHQWLSGNRALGNAGARDIEIRLNLAQGYFDH,-2.16
4,HMDMQMPIMNGLEFLERINLTLDDNFSIIVLTGKIEDKSIEKSFELGINAYLRKPFNIYALLGIVRQN,-0.135
5,HMDMSDFEVVRDMYLTGKVWNAGDIVEAKGITGEVVRKGTNYLSFVDKNGKVHKAWLHEIEL,-0.197
6,HMDNAILQELYDYYKEDPSLSQSELIISMLTRIQEAVGYVSKDVQEEVARLAGVNRGYVAAIIKNLPHL,-1.17
7,HMDNEYDKVYQAALSKLEGYPRSSITTAVIKDVVAQTIKYFEIKNFGYEDTIINQLQSAFTVKSSS,-0.0883
8,HMDNLSESQIKAYSSILSRTHEISDLAENKDYLAFSLWIANILRDPQSVREETAKRVFSALHTNTDFK,-0.984
9,HMDNMFMPPVNGWDVRQALQKLQNEMGLQVKMEYSPSETITEGYVISYTPIDGMKVEKGDEVTLVISTGPE,-0.0359
10,HMDNMTEMQKAVTALIEKSGGSIDNLSVIYDHLKKKYPSFDLKDYGYSRFSSFLRSMENIMVRGNAVTLRS,-0.211
11,HMDNPPDRAEIEQMLKDAGLTPEADAMAALSDLARTLDPGDFRQTLEKITLYKLGDSTPIGLDDIAAGAP,0.0465
12,HMDNQSIVRINDGDGAWRQRLGEHFGHLPRDRKRGEIVLQVDAADWRWLQTQGYAPRFDAALSAQLQTTL,-0.479
13,HMDNVLGKSGKVIFVNEEINSYGRAFIPGHGEWNIRTKSDQNIHINDGIKVIERDGITLVVEL,-1.26
14,HMDNVQLRNFAIKATEASIIYLDQEQRNFFWYNNNKKLMTVPFDENPYSAFAAYLKTDEGSEVYKAIEKKF,-1.97
15,HMDNWAALLSEREVQVSRLVANGASNKEIADHLAITERTVKAHLTAVFEKLGVRDRLQLSLRVNGL,-3.94
16,HMDPALSPAEQKIWDLLAAGETHIDDLVRASGLPVATVNSALVMMEMKEVISQVAAKTYRRNRRN,-1.3
17,HMDPEARRRAILNAAIDVIVEKGAAALTHRAVAARAGVSLGSTTKYFSSIEDLRENAMDALVREMD,-0.496
18,HMDPEEQIQSREIWEAVERALDGMQEKGRRVVIALLEGQTQLEVSRAAGISQPLISYYLKSFRTKVRTELG,-0.73
19,HMDPEIADAVNTIKKYLESHYSEVITRKKIEELVHLNQDHINREFKKQTGYTLMEYVQHYRILMAKKMLRV,-0.576
20,HMDPEQLKIAINTKMPFGKYSGRPLLLLPEPYLVWFKQQGFPDSKLGSQLAMMYEVKLNGLEQMLMPLL,-0.665
21,HMDPERLDQLQNPDPAVRREAIIALGRSKDLAALPELAKVYKNDPVPELRELARQAGRYIQQENRP,0.00398
22,HMDPFVILGISKDSSQSEILEAYKTKRAYYQEHVFDEGDQGAQAARMLGQLDDAYQQAMELSHE,0.0281
23,HMDPKISWESDEKLSANIGHYENSIKPLMGNKYLIELSQLKDKIESHPWVARATIKRIFWNKIHIQLESHD,-0.0642
24,HMDPKWSHVRRLLDDENPIVRKALTEELIRSPEEGLAFLEQVIREPDHLLAKHAHNLLSELGWV,0.192
25,HMDPLGHVIKKKRLQLGMTLRDLAAKAGVHHATIDRIETDQFKVVDPSTLVKIAEALHLDQLYLLSLN,-0.666
26,HMDPLPDEVQEVIDMVDGFKAMDELSEADKADVKAAYDAYNALSAEHKAMVPEHIVTFLNRAYDKLFD,0.159
27,HMDPPVDLTPREQQVLSRIALGMSDKAIAAELGVSHQTVRNHVARIYAKIKVHSRSQAIVWAREKGIP,-2.36
28,HMDPSKMKIDELEIATRTATALADGGIKSVAGLIRKSASALKELDGVGDKAIAEITEALEKLGLELKG,0.106

row,Sequence,soluble fraction (log2)
1,HMDPSWVPVFNNLRDAILSHQLLPGTRLAEDELSNIYGLGRTVIRSALGALTHEGLLTHIPNRGVHVAKP,-1.16
2,HMDPTIAAIRKKLKNWTIVEVHMTREELEQAVIDGKVDVFLSSAGFYRRLVRFGARDLATAMSPAYPD,-0.68
3,HMDPTYYFNLYPNPSKDEVSLFTNFTGKINIEILDLAGKSILSDNPISTISLVSLKEGLYLVKVKS,-0.178
4,HMDPYLSGLLQKLAETDKKISFTRLRSEDLDGESREAIYEFIEKYSGRFGVRWLLNEFGLSPSVYYNYLHS,-0.727
5,HMDQDLGFLINKYFELGKDYNTLVEIYEKIKEYIASIDKKMLEYTKNFTIEQLKKWLDDGTINNIILTLG,-0.122
6,HMDQEDAYMQVRQVFDTLLVSELSKRIFAWRFFEGKSFAEWPGAESQKFLYDTFNRILLIISAKIRRKNA,-0.0464
7,HMDQHERQQLLIHIAGGEREALAELYQRTRSAVYGLALSYLKNAHDAQDLTRDVYVQVWDRA,-0.0158
8,HMDQQTKFKTALAALAASAETKDRKLTKADVKEFLEDMDLGEEQMKLVYAYLASKHIHVEGAE,≥ 1.04
9,HMDQSIDADIINLNFSKNIIKIEENVYYKNNNAKVNADKIEINIETKKLKISMNEQEDEVEIFAK,0.552
10,HMDQTIFFGQQKAINNLSTDAGLSATELDEYLKKRYKRPLYQLTQAEGAEIIKGFQDGALSRSSILDYTK,0.0434
11,HMDRKFFFNEQYEDYINSDLKVKFMNDSGSKKSFQGELTKVTPSDLFLESEKESVKVPFSSIIQANLI,-0.197
12,HMDRLTISTLGNGLFRVNGAEAEATVYNLSGNVVKVVPADEVIDLSSLAKGVYIIHVDGEAFKVI,-1.13
13,HMDRMFQPETWSKIYQWVMNDPQVPDKEDVLALIRRHFGNFEKLIKLLHYLDGGKPYAYLSEH,-0.473
14,HMDRSLYVGDAVGFDSARGLMEIEVKNKFSVVAVSLKKKPSGNFITPLLRMEKKKGEAVTVAPGSGHR,-0.514
15,HMDRSQRDQEQAQLIRLVQQAFDDSGQRYGAEKIRITLAEGGIRVSTKRIAAIMQELDLRSI,-2.41
16,HMDRSRAEIDLGHVETAIRTLAEGGMVQEYAIGGRSLKRYKMGELLQLKAELENEINMERRKEKMRQ,0.212
17,HMDRVDGWLHDGKLYLRVVDYKTGKKSFDLAELRYGLGLQMLLYLFTLKEEGQMLFGGHEIVPAGVL,-0.514
18,HMDRVSEITLTRLRDYAADGQVRTATLTHRTNVVTGTLRDGRRFSAGVPPMYGDELTTFLLDNGVRVDSDN,-0.41
19,HMDSDMGQQLKTLLTVGTFMSSKELKAIAQQLGLKKPTDLKEWVELESGTQRIEGKPTKGYWIKMNDINN,-0.367
20,HMDSGINVWASAEGLTITADKDTTVYVYDIYGRTIHTSEVKAGTSDIAINTKGIVIVKANGYTKKII,-1.77
21,HMDSILSIVGGEESYKALLAWAENNISQQELQQLETILKSGNVPAIKRVLVTLMNRFNQAQS,-0.114
22,HMDSINGEASISRELHGTRFDQAAAILFPEFSRSRLQAWIGAGALTLDGQTARAKDKVTQGQHLVLAAAVE,-0.54
23,HMDSINIDEETAKLGPNAPQIIDGIKKWGQGLVAKGVWSDEDFDEFKVFAATSSGINALNKIRKYY,0.188
24,HMDSKYLRIFSTLIDEMEKMSPGEQLQSERELSQRFQVSPMTVRRALHKLSTEGYTSAIPGKGTFVRK,-0.707
25,HMDSLELADEVGRVSEALQELRPHQREVLELSLVHGRSHQQISEKTGLALGTVKSHARRGLMRVREMLGV,-0.381
26,HMDSLIEYENERSLRRLINENLSDYERTVWWLYYAGADAAHIAEQTGRSKRSAENAITRVRRKLRALITQS,-1.33
27,HMDSNISVSEALEMVDKGSVKEIIVEGEKLYITNQDGKQYTSSKEVGVSLIELMKDSGIDPIKSDVNIIVK,0.463
